Test [1] has as its target T1, human CD47, endogenous cell surface form (human, UniProt Q08722 19-323).
T1 construct: Endogenous CD47 on human tumor cell lines; also called cell surface CD47; CD47 on Raji, CCRF-CEM and Daudi cells
The test is described as described in Examples 2 and 3. The source says: Exemplary murine CD47 antibodies disclosed here are shown in FIG. 2, as disclosed in U.S. patent application Ser. No. 13/960,136 (Publication No. US20140140989).

Test [2] concerns the target T1, human CD47, endogenous cell surface form. The experiment in a line: cell-based or functional assay.

B1: murine 9E4 antibody (antibody, mouse IgG1, V domains shown)
VH: EVQLRQSGPELVKPGASVKISCKASGYSFTDYYMYWVKQSRVRSLAWIGRINPYTGATGYDQNFKDKASLIVDKSSSTAYMELRSLTSEDSAVYYCARGRNRYDGWFAYWGQGTLVTV
VL: EIQMTQTTSSLSASLGDRVTISCRASQDISNYLNWYQQKPDGTVKLLIYYTSRLHSGVPSRFSGSGSGTDYSLTISNLDQEDIATYFCQQGNALPPTFGGGTNLEIK
On to B1, for which the binding result in test [1] was “binds”.

B2: CD47 antibody B6H12 (antibody, from another filing, V domains shown)
VH: EVQLVESGGDLVKPGGSLKLSCAASGFTFSGYGMSWVRQTPDKRLEWVATITSGGTYTYYPDSVKGRFTISRDNAKNTLYLQIDSLKSEDTAIYFCARSLAGNAMDYWGQGTSVTVSS
VL: DIVMTQSPATLSVTPGDRVSLSCRASQTISDYLHWYQQKSHESPRLLIKFASQSISGIPSRFSGSGSGSDFTLSINSVEPEDVGVYYCQNGHGFPRTFGGGTKLEIK
B2 gave a phagocytosis of tumor cells (CFSE-labeled CCRF-CEM) by monocyte derived macrophages in test [2] of 66.7 pM.

Values taken from patent publication US20210371522A1 (CELGENE, published 2021).
